Laboratory results from US20240241135A1 (SENBOLL BIOTECHNOLOGY, published 2024).

How the values were obtained:
[1] = biological target: T1, recombinant human regenerating islet-derived protein 1α (REG1A) (human, UniProt P05451 23-166, limits assumed); experiment: sandwich ELISA; capture 4H8F1; REG1A 1.23 ng/mL
T1 construct: also called recombinant human REG1A; recombinant REG1A
T1 sequence (looked up): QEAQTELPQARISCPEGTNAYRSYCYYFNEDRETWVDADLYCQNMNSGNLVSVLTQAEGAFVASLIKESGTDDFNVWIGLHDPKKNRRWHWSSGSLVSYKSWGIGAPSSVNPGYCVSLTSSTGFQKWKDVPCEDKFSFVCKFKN
Procedure, shortened: (§1)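 In this sandwich ELISA, the capture monoclonal antibody was coated in PBS overnight at 4 °C, and blocking followed for 2 h at 37 °C. Recombinant human REG1A in basic diluent was incubated for 1 h at 37 °C, then a horseradish peroxidase-based detection antibody system and TMB substrate were applied for 15 min at 37 °C before the reaction was stopped with 0.2M sulfuric acid. The OD value is the dual-wavelength corrected absorbance. It equals the absorbance at 450 nm minus the absorbance at 620/630 nm.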

[2] = biological target: T1, recombinant human regenerating …; experiment: sandwich ELISA; capture 4H8F1; REG1A 3.70 ng/mL
Procedure, shortened: as §1

[3] = biological target: T1, recombinant human regenerating …; experiment: sandwich ELISA; capture 25F3C4; REG1A 1.23 ng/mL
Procedure, shortened: as §1

[4] = biological target: T1, recombinant human regenerating …; experiment: sandwich ELISA; capture 25F3C4; REG1A 3.70 ng/mL
Procedure, shortened: as §1

[5] = biological target: T1, recombinant human regenerating …; experiment: sandwich ELISA; capture 4H8F1; REG1A 11.11 ng/mL
Procedure, shortened: as §1

[6] = biological target: T1, recombinant human regenerating …; experiment: sandwich ELISA; capture 4H8F1; REG1A 33.33 ng/mL
Procedure, shortened: as §1

[7] = biological target: T1, recombinant human regenerating …; experiment: sandwich ELISA; capture 21B11D2; REG1A 1.23 ng/mL
Procedure, shortened: as §1

[8] = biological target: T1, recombinant human regenerating …; experiment: sandwich ELISA; capture 21B11D2; REG1A 3.70 ng/mL
Procedure, shortened: as §1

[9] = biological target: T1, recombinant human regenerating …; experiment: sandwich ELISA; capture 25F3C4; REG1A 11.11 ng/mL
Procedure, shortened: as §1

[10] = biological target: T1, recombinant human regenerating …; experiment: sandwich ELISA; capture 25F3C4; REG1A 33.33 ng/mL
Procedure, shortened: as §1

[11] = biological target: T1, recombinant human regenerating …; experiment: sandwich ELISA; capture 4H8F1; REG1A 100.00 ng/mL
Procedure, shortened: as §1

[12] = biological target: T1, recombinant human regenerating …; experiment: sandwich ELISA; capture 11D11B11; REG1A 1.23 ng/mL
Procedure, shortened: as §1

[13] = biological target: T1, recombinant human regenerating …; experiment: sandwich ELISA; capture 11D11B11; REG1A 3.70 ng/mL
Procedure, shortened: as §1

[14] = biological target: T1, recombinant human regenerating …; experiment: sandwich ELISA; capture 12F12A10; REG1A 1.23 ng/mL
Procedure, shortened: as §1

[15] = biological target: T1, recombinant human regenerating …; experiment: sandwich ELISA; capture 12F12A10; REG1A 3.70 ng/mL
Procedure, shortened: as §1

[16] = biological target: T1, recombinant human regenerating …; experiment: sandwich ELISA; capture 21B11D2; REG1A 11.11 ng/mL
Procedure, shortened: as §1

[17] = biological target: T1, recombinant human regenerating …; experiment: sandwich ELISA; capture 21B11D2; REG1A 33.33 ng/mL
Procedure, shortened: as §1

[18] = biological target: T1, recombinant human regenerating …; experiment: sandwich ELISA; capture 25F3C4; REG1A 100.00 ng/mL
Procedure, shortened: as §1

[19] = biological target: T1, recombinant human regenerating …; experiment: sandwich ELISA; capture 11D11B11; REG1A 11.11 ng/mL
Procedure, shortened: as §1

[20] = biological target: T1, recombinant human regenerating …; experiment: sandwich ELISA; capture 11D11B11; REG1A 33.33 ng/mL
Procedure, shortened: as §1

[21] = biological target: T1, recombinant human regenerating …; experiment: sandwich ELISA; capture 12F12A10; REG1A 11.11 ng/mL
Procedure, shortened: as §1

[22] = biological target: T1, recombinant human regenerating …; experiment: sandwich ELISA; capture 12F12A10; REG1A 33.33 ng/mL
Procedure, shortened: as §1

[23] = biological target: T1, recombinant human regenerating …; experiment: sandwich ELISA; capture 21B11D2; REG1A 100.00 ng/mL
Procedure, shortened: as §1

[24] = biological target: T1, recombinant human regenerating …; experiment: sandwich ELISA; capture 11D11B11; REG1A 100.00 ng/mL
Procedure, shortened: as §1

[25] = biological target: T1, recombinant human regenerating …; experiment: sandwich ELISA; capture 12F12A10; REG1A 100.00 ng/mL
Procedure, shortened: as §1

[26] = biological target: T1, recombinant human regenerating …; experiment: sandwich ELISA; capture 4H8F1; REG1A 0 ng/mL (blank)
Procedure, shortened: as §1

[27] = biological target: T1, recombinant human regenerating …; experiment: sandwich ELISA; capture 25F3C4; REG1A 0 ng/mL (blank)
Procedure, shortened: as §1

[28] = biological target: T1, recombinant human regenerating …; experiment: sandwich ELISA; capture 21B11D2; REG1A 0 ng/mL (blank)
Procedure, shortened: as §1

[29] = biological target: T1, recombinant human regenerating …; experiment: sandwich ELISA; capture 11D11B11; REG1A 0 ng/mL (blank)
Procedure, shortened: as §1

[30] = biological target: T1, recombinant human regenerating …; experiment: sandwich ELISA; capture 12F12A10; REG1A 0 ng/mL (blank)
Procedure, shortened: as §1

OD value [1]: 0.072 OD | OD value [2]: 0.068 OD | OD value [3]: 0.066 OD | OD value [4]: 0.068 OD | OD value [5]: 0.07 OD | OD value [6]: 0.073 OD | OD value [7]: 0.066 OD | OD value [8]: 0.069 OD | OD value [9]: 0.069 OD | OD value [10]: 0.071 OD | OD value [11]: 0.08 OD | OD value [12]: 0.07 OD | OD value [13]: 0.06 OD | OD value [14]: 1.18 OD | OD value [15]: 2.38 OD | OD value [16]: 0.069 OD | OD value [17]: 0.071 OD | OD value [18]: 0.073 OD | OD value [19]: 0.066 OD | OD value [20]: 0.063 OD | OD value [21]: 2.89 OD | OD value [22]: 3.21 OD | OD value [23]: 0.068 OD | OD value [24]: 0.065 OD | OD value [25]: 3.35 OD | OD value [26]: 0.069 OD | OD value [27]: 0.068 OD | OD value [28]: 0.073 OD | OD value [29]: 0.068 OD | OD value [30]: 0.068 OD
B1: antibody 21B11D2 (antibody, mouse IgG2b, kappa, V domains shown)
VH: QAQLQQSGAELVRPGASVTLSCKASGYIFTDYEMHWVKQTPVHGLEWIGAIDPETGGTAYNQKFKGKARLTADKSSSTAYMELRSLTSEDSAVYYCTIYYTNHFDYWGQGTTLTVSS
VL: DVVMTQTPLSLPVSLGDQASISCRSSQSLVYSNGDTYLYWYLQKPGQSPKLLIYKVSNRFSGVPDRFSGSGSGTDFTLKISRVEAEDLGVYFCSQSTHVPLTFGAGTKLELKR
notes: Mouse monoclonal from hybridoma, stated mouse IgG1/Kappa; Used unlabelled as capture and biotin-labelled as detection antibody; also called 21B11D2-biotin
